From patent US20030143656A1 come the findings set out here.

Assay [1] has as its target endogenous PDK1 (293 cells) (human) (UniProt O15530). The experiment in a line: cell-based or functional assay.
In assay [2] the target is PIFtide (human). The assay is described as follows: method not stated (reference mark lost).
Chain of PIFtide (human) (peptide, as listed by the source): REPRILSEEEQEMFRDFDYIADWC

Chain of endogenous PDK1 (293 cells) (human) (O15530 whole entry): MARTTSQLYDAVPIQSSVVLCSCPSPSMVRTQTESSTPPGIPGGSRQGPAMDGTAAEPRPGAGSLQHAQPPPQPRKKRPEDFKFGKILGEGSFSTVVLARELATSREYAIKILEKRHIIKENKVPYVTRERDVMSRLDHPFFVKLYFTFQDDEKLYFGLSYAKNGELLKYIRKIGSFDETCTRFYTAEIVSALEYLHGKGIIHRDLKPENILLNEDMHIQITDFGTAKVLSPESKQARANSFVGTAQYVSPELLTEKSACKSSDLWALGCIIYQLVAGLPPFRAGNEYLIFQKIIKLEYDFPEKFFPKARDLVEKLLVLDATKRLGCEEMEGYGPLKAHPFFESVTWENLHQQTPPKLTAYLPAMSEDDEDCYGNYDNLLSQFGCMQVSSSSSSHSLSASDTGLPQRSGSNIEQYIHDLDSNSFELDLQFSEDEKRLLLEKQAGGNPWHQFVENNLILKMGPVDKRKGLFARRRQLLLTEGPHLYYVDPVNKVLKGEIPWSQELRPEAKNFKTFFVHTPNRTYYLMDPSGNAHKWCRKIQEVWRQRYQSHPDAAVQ

In turn, “GST-F977A-PIF (from UniProt Q16513 908-984)” came in with an activation of p70 S6K on cotransfection with GST-F977A-PIF in assay [1] of 50%.

In assay [2], “GST-PDK1 I119A (from UniProt O15530 1-556) (enzyme)” displayed a fold decrease in affinity for PIFtide of 10 fold.
